# Results taken from patent US20090214537A1 (Novartis, published 2009).
# B1: BibA-Nt-His (GBS3-Nt-His), coiled-coil domain of BibA, aa 34-394 (other)
# chain: MHADTSSGISASIPHKKQVNLGAVTLKNLISKYRGNDKAIAILLSRVNDFNRASQDTLPQLINSTEAEIRNILYQGQIGKQNKPSVTTHAKVSDQELGKQSRRSQDIIKSLGFLSSDQKDILVKSISSSKDSQLILKFVTQATQLNNAESTKAKQMAQNDVALIKNISPEVLEEYKEKIQRASTKSQVDEFVAEAKKVVNSNKETLVNQANGKKQEIAKLENLSNDEMLRYNTAIDNVVKQYNEGKLNITAAMNALNSIKQAAQEVAQKNLQKQYAKKIERISSKGLALSKKAKEIYEKHKSILPTPGYYADSVGTYLNRFRDKQTFGNRSVWTGQSGLDEAKKMLDEVKKLLKELQDLTRGLEHHHHHH
# notes: His-tagged fragment expressed from pET21b(+); also called BibA N-terminal construct; N-terminal portion of BibA
# B2: BibA-Ct-His (GBS3-Ct-His), proline-rich domain of BibA, aa 389-622 (other)
# chain: MQDLTRGTKEDKKPDVKPEAKPEAKPDVKPEAKPDVKPEAKPDVKPEAKPDVKPEAKPDVKPEAKPDVKPKAKPDVKPEAKPDVKPDVKPDVKPEAKPEDKPDVKPDVKPEAKPDVKPEAKPEAKPEAKPEAKPEAKPEAKPDVKPEAKPDVKPEAKPEAKPEAKSEAKPEAKLEAKPEAKPATKKSVNTSGNLAAKKAIENKKYSKKLPSTGEAASPLLAIVSLIVMLSAGLITLEHHHHHH
# notes: His-tagged fragment; also called BibA C-terminal construct; C-terminal portion of BibA
# B3: BibA-His (GBS3-His), recombinant entire form of BibA from S. agalactiae 2603 V/R with C-terminal His-tag (other)
# chain: MHADTSSGISASIPHKKQVNLGAVTLKNLISKYRGNDKAIAILLSRVNDFNRASQDTLPQLINSTEAEIRNILYQGQIGKQNKPSVTTHAKVSDQELGKQSRRSQDIIKSLGFLSSDQKDILVKSISSSKDSQLILKFVTQATQLNNAESTKAKQMAQNDVALIKNISPEVLEEYKEKIQRASTKSQVDEFVAEAKKVVNSNKETLVNQANGKKQEIAKLENLSNDEMLRYNTAIDNVVKQYNEGKLNITAAMNALNSIKQAAQEVAQKNLQKQYAKKIERISSKGLALSKKAKEIYEKHKSILPTPGYYADSVGTYLNRFRDKQTFGNRSVWTGQSGLDEAKKMLDEVKKLLKELQDLTRGTKEDKKPDVKPEAKPEAKPDVKPEAKPDVKPEAKPDVKPEAKPDVKPEAKPDVKPEAKPDVKPKAKPDVKPEAKPDVKPDVKPDVKPEAKPEDKPDVKPDVKPEAKPDVKPEAKPEAKPEAKPEAKPEAKPEAKPDVKPEAKPDVKPEAKPEAKPEAKSEAKPEAKLEAKPEAKPATKKSVNTSGNLAAKKAIENKKYSKKLPSTGEAASPLLAIVSLIVMLSAGLITLEHHHHHH
# notes: His-tagged protein expressed from pET21b(+) in E. coli; also called recombinant BibA; BibA protein
# What was measured:
# [1] = molecular target: putative BibA receptor on human epithelial cells (ME180, A549, Caco2, 16HBE); assay: flow cytometry, recombinant BibA on ME180 cells, anti-BibA serum and PE-conjugated secondary antibody
# [2] = molecular target: putative BibA receptor on human epithelial cells (ME180, A549, Caco2, 16HBE); assay: flow cytometry saturation curve on ME180 cells, BibA concentration at 50% saturation (FIG. 22B)
# [3] = molecular target: T1, human C4b-binding protein (C4BP) purified from citrated human plasma (human, UniProt P04003 49-597; P20851 18-252); assay: overlay blot of the SDS-PAGE separated constructs with C4bp (FIG. 21C)
# T1 construct: also called human plasma C4BP; human complement regulator C4 bp
# T1 sequence 1: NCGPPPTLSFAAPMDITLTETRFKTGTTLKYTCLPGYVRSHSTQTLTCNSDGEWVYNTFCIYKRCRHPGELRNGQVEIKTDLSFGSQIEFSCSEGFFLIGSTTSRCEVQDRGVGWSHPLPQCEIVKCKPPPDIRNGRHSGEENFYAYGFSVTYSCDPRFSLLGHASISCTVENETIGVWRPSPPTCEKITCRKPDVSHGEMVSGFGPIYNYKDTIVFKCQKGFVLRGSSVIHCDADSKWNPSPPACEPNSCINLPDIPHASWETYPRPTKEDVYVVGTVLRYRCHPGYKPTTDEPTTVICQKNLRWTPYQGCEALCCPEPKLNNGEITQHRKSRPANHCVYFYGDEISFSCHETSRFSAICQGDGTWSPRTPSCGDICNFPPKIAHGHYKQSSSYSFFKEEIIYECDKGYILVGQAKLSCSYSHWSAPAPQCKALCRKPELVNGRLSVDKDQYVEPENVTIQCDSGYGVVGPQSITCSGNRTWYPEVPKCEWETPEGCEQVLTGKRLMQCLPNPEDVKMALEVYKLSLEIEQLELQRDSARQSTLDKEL
# T1 sequence 2: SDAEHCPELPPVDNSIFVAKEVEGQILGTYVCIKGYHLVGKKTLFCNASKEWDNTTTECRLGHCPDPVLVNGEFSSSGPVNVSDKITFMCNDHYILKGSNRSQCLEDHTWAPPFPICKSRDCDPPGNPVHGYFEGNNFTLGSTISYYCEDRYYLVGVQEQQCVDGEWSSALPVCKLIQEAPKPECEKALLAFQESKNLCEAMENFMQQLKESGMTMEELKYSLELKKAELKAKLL
# [4] = molecular target: T2, Factor H (alternative complement pathway regulator) (UniProt P08603 19-1231); assay: overlay blot (format not detailed)
# T2 construct: also called FH
# T2 sequence (P08603 19-1231): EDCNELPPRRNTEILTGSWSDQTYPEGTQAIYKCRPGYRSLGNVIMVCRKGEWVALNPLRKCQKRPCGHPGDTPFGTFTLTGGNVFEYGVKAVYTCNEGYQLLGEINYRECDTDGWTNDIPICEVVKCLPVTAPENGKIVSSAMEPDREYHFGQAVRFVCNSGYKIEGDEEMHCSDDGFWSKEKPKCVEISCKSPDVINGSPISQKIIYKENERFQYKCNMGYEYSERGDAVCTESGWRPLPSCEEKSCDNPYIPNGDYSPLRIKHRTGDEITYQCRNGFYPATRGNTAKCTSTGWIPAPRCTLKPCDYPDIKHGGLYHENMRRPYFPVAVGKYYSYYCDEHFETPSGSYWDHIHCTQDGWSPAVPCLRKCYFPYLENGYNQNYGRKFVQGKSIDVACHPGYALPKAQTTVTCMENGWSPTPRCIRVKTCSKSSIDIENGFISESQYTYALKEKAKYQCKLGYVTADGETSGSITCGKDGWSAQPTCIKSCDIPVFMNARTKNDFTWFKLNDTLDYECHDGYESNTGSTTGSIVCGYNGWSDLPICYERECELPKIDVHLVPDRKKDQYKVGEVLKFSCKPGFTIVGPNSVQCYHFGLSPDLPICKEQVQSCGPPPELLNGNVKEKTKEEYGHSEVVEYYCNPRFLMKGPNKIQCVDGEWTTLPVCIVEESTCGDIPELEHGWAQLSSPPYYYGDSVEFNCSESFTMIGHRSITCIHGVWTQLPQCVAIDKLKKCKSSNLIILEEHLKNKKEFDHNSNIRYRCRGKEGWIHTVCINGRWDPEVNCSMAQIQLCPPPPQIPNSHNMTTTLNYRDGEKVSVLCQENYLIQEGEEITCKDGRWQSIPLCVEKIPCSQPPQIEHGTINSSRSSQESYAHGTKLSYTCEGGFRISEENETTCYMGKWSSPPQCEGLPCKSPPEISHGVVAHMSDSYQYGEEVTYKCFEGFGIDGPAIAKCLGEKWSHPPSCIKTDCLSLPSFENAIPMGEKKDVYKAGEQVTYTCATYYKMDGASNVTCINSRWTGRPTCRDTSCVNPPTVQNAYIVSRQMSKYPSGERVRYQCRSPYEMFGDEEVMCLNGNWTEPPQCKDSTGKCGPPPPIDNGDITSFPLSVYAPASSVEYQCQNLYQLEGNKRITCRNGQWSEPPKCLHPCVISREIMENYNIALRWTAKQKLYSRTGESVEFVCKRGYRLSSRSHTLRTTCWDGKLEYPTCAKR
molecule,measurement,setting,value
"BibA-His (GBS3-His), recombinant entire form of BibA from S. agalactiae 2603 V/R with C-terminal His-tag",BibA concentration at which binding reached a plateau,[1],5 µg/mL
same,Kd,[2],40 nM
B1,binding result,[3],binds
B2,binding result,[3],no binding (tested: 5 µg/ml)
B3,binding result,[4],no binding
